Results on two proteins are retold here after PMC8141814 (Frontiers in Molecular Biosciences, 2021).

The data set “SEC” deals with the molecule itself. In words: SEC. In general terms: Size exclusion chromatography separates by hydrodynamic size, large species first.
Data set [1] concerns the molecule itself. The data set is described as follows: SEC; SEC profile of cell-free synthesized ORF14 in DDM detergent micelles.

B1: nsp9, full-length (natural protein)
chain: NNELSPVALRQMSCAAGTTQTACTDDNALAYYNTTKGGRFVLALLSDLQDLKWARFPKSDGTGTIYTELEPPCRFVTDTPKGPKVKYLYFIKGLNNLNRGMVLGSLAATVRLQ
notes: also called fl nsp9
What is called stoichiometry N is the number of molecules, sites or subunits per partner or assembly. Take B1: the “stoichiometry N” value in “SEC” stood at 2.

B2: ORF14 (ORF9c) protein, full-length (natural protein)
chain: MLQSCYNFLKEQHCQKASTQKGAEAAVKPLLVPHHVVATVQEIQLQAAVGELLLLEWLAMAVMLLLLCCCLTD
notes: also called OFR14
B2: the “stoichiometry N” value in data set [1] is approximately 9.
